For 30 molecules, IC50 results are on record in patent publication US20220162261A1 (published 2022).

Numbered stars: 1 amine (or outer) side, 2 acyl side, 3 side chain; on linkers, the order of the positions; unused ones are H or OH. Bridge positions count the residues as written; N and C are the ends. Square brackets hold non-standard residues; d marks the D form. Primed or numbered codes have the meaning given here. Ends that are not written are not given here. * marks the point of attachment. Phe(4-OMe)″ = 4-methoxy-phenylalanine, COc1ccc(C[C@H](N[*:1])C(=O)[*:2])cc1; Phe(4-CF3) = N[C@@H](Cc1ccc(C(F)(F)F)cc1)C(=O)O; Phe(4-COOH) = N[C@@H](Cc1ccc(C(=O)O)cc1)C(=O)O; Phe(4-tBu) = CC(C)(C)c1ccc(C[C@H](N)C(=O)O)cc1; Phe(2,4-Cl2) = N[C@@H](Cc1ccc(Cl)cc1Cl)C(=O)O; Phe(2-CONH2) = NC(=O)c1ccccc1C[C@H](N)C(=O)O; Phe(4-CN) = N#Cc1ccc(C[C@H](N)C(=O)O)cc1; Phe(4-F) = N[C@@H](Cc1ccc(F)cc1)C(=O)O; Oleoyl = CCCCCCCC/C=C\CCCCCCCC(=O)*; NMeR = CN[C@@H](CCCNC(=N)N)C(=O)O; Palmitoyl = CCCCCCCCCCCCCCCC(=O)*; Myristoyl = CCCCCCCCCCCCCC(=O)*; Tic = O=C(O)[C@@H]1Cc2ccccc2CN1; β3hE = N[C@@H](CCC(=O)O)CC(=O)O; DIG = diglycolic acid (linker); Pen = CC(C)(S)[C@H](N)C(=O)O; Isovaleryl = CC(C)CC(=O)*; Hexanoyl = CCCCCC(=O)*

This assay deals with T1, human α4β7 integrin on cells (human, UniProt P13612 34-1032; P26010 20-798).
T1 construct: whole, on cells; also called α4β7 cell (Hu); RPMI8866 cells
As to the kind of experiment: RPMI8866 cell adhesion to MAdCAM-1.

Broadly, the IC50 is the concentration that inhibits the measured activity by half. Higher therefore signals weaker potency in that assay.

B1: SEQ ID NO: 6 (peptide)
peptide: C[NMeR]SDTLCW-NH2
modifications: disulfide 1-7 (inferred); not fully specified (N-terminus); printed as DIG NH2 C N-Me-R S D T L C W NH2; also: N-terminal DIG linker, number of subunits not shown
notes: N-terminal linker printed without dimer brackets
B1 gave an IC50 greater than 50 nM. To Isovaleryl-[Pen][NMeR]SDTL[Pen][Phe(4-tBu)][β3hE][dK]-NH2 (disulfide 1-7) [SEQ ID NO: 177] belongs greater than 50 nM.

B2: SEQ ID NO: 107 (peptide)
peptide: Ac-[Pen][NMeR]SDTL[Pen][Phe(4-F)][dE][dK]-NH2
modifications: disulfide 1-7; not fully specified (residue 10); printed as (Ac Pen N-Me-R S D T L Pen F(4-F) e k NH2)2 DIG, disulfide Pen-Pen; also: homodimer: two subunits joined by DIG linker
Regarding B2, the IC50 is greater than 25 nM. On to Ac-[Pen][NMeR]SDTL[Pen][Phe(4-tBu)][β3hE][dK](Palmitoyl) (disulfide 1-7) [SEQ ID NO: 172], for which the IC50 amounted to 965 nM. In other words, the sub-micromolar range.

With Ac-[Pen][NMeR]SDTL[Pen][Phe(4-tBu)][β3hE][dK](Isovaleryl) (disulfide 1-7) [SEQ ID NO: 171], the concentration for half-maximal inhibition (IC50) is greater than 10 nM.

B3: SEQ ID NO: 5 (peptide)
peptide: Ac-[dK]C[NMeR]SDTLCW[dK]-NH2
modifications: disulfide 2-8 (inferred); not fully specified; printed as DIG (Ac k C N-Me-R S D T L C W k NH2)2 DIG
notes: DIG printed at both ends
As for B3, the half-maximal inhibitory concentration (IC50) is greater than 50 nM.

B4: SEQ ID NO: 103 (peptide)
peptide: Ac-[Pen][NMeR]SDTL[Pen][Phe(4-OMe)″][dE][dK]-NH2
modifications: disulfide 1-7; not fully specified (residue 10); printed as (Ac Pen N-Me-R S D T L Pen F(4-OMe) e k NH2)2 DIG; also: homodimer: two subunits joined by DIG linker
On to B4, for which the IC50 was greater than 25 nM.

B5: SEQ ID NO: 139 (peptide)
peptide: Ac-[Pen][NMeR]SDTL[Pen][Phe(4-CN)][β3hE][dK]-NH2
modifications: disulfide 1-7; not fully specified (residue 10); printed as (Ac Pen N-Me-R S D T L Pen F(4-CN) b-H-E k NH2)2 DIG, disulfide Pen-Pen; also: homodimer, two subunits joined by DIG linker
In turn, B5 had an IC50 of no more than 10 nM.

B6: SEQ ID NO: 98 (peptide)
peptide: Ac-[Pen][NMeR]SDTL[Pen][Phe(2-CONH2)][dE][dK]-NH2
modifications: disulfide 1-7; not fully specified (residue 10); printed as (Ac Pen N-Me-R S D T L Pen F(2-carbamoyl) e k NH2)2 DIG, disulfide Pen-Pen; also: homodimer (…)2 DIG: the two subunits are joined through the K10 NZ by the DIG linker
B6 returned an IC50 greater than 50 nM. Hexanoyl-[Pen][NMeR]SDTL[Pen][Phe(4-tBu)][β3hE][dK]-NH2 (disulfide 1-7) [SEQ ID NO: 176] yielded an IC50 greater than 50 nM. Palmitoyl-[Pen][NMeR]SDTL[Pen][Phe(4-tBu)][β3hE][dK]-NH2 (disulfide 1-7) [SEQ ID NO: 178] registered a half-inhibitory concentration (IC50) greater than 1000 nM.

B7: SEQ ID NO: 186 (peptide)
peptide: Ac-[Pen][NMeR]SDIL[Pen][Phe(4-tBu)][β3hE][dK]-NH2
modifications: disulfide 1-7; not fully specified (residue 10); printed as (Ac Pen N-Me-R S D I L Pen F(4-tBu) b-H-E k NH2)2 IDA, disulfide Pen-Pen; also: homodimer: two subunits joined by IDA linker
B7 had an IC50 greater than 100 nM.

Ac-[Pen][NMeR]SDIL[Pen][Phe(4-tBu)][β3hE][dK]-NH2 (disulfide 1-7; also: homodimer via IDA linker carrying Alexa-647) [SEQ ID NO: 188]: the IC50 was no more than 10 nM. For the molecule Ac-[Pen][NMeR]SDDL[Pen][Phe(4-tBu)][β3hE][dK]-NH2 (disulfide 1-7; also: homodimer via IDA linker on D-Lys10 side chains) [SEQ ID NO: 191], the IC50 was greater than 10000 nM.

B8: SEQ ID NO: 193 (peptide)
peptide: Ac-[Pen][NMeR]SDDL[Pen][Phe(4-tBu)][β3hE][dK]-NH2
modifications: disulfide 1-7; also: homodimer via IDA linker on D-Lys10 side chains, Alexa-647 label
On to B8, for which the 50% inhibitory concentration (IC50) is greater than 100000 nM. To Ac-[Pen][NMeR]SDTQ[Pen][Phe(4-tBu)][β3hE][dK]-NH2 (disulfide 1-7; also: homodimer: two subunits joined by IDA linker) [SEQ ID NO: 187] belongs greater than 100 nM.

B9: SEQ ID NO: 122 (peptide)
peptide: Ac-[Pen][NMeR]SDTL[Pen][Phe(4-CF3)][dE][dK]-NH2
modifications: disulfide 1-7; not fully specified (residue 10); printed as (Ac Pen N-Me-R S D T L Pen F(4CF3) e k NH2)2 DIG, disulfide Pen-Pen; also: homodimer: two subunits joined by DIG linker
Regarding B9, the IC50 was greater than 50 nM.

B10: SEQ ID NO: 7 (peptide)
peptide: [Pen][NMeR]SDTL[Pen][dF]-NH2
modifications: disulfide 1-7; not fully specified (N-terminus); printed as DIG NH2 Pen N-Me-R S D T L Pen f NH2, disulfide Pen-Pen; also: DIG linker at N-terminus, number of subunits not shown
notes: as for B1
As to B10, the half-maximal inhibitory concentration (IC50) is greater than 1000 nM. Regarding XRSDTLXW (Ac Pen N-Me-R S D T L Pen W OH; disulfide Pen-Pen) [SEQ ID NO: 127], the IC50 was greater than 100 nM. With Ac-[Pen][NMeR]SDTL[Pen][Phe(4-tBu)][β3hE][dK](4,4,4‑trifluorobutyryl) (disulfide 1-7) [SEQ ID NO: 169], the IC50 is greater than 10 nM. The value for Ac-[Pen][NMeR]SDTL[Pen][Phe(4-tBu)][β3hE][dK](Oleoyl) (disulfide 1-7) [SEQ ID NO: 174] was greater than 1000 nM.

B11: SEQ ID NO: 100 (peptide)
peptide: Ac-[Pen][NMeR]SDTL[Pen][Phe(4-COOH)][dE][dK]-NH2
modifications: disulfide 1-7; not fully specified (residue 10); printed as (Ac Pen N-Me-R S D T L Pen F(4-COOH) e k NH2)2 DIG; also: homodimer: two subunits joined by DIG linker
In the case of B11, the IC50 was no more than 10 nM.

B12: SEQ ID NO: 101 (peptide)
peptide: Ac-[Pen][NMeR]SDTL[Pen][Phe(2,4-Cl2)][dE][dK]-NH2
modifications: disulfide 1-7; not fully specified (residue 10); also: homodimer: two subunits joined by DIG linker
notes: F(2,4-ci) as printed
Molecule B12 yielded an IC50 greater than 50 nM.

B13: SEQ ID NO: 128 (peptide)
peptide: Ac-[Pen][NMeR]SDTL[Pen]WE-OH
modifications: disulfide 1-7
SMILES: CC(=O)N[C@@H]1C(=O)N(C)[C@@H](CCCNC(=N)N)C(=O)N[C@@H](CO)C(=O)N[C@@H](CC(=O)O)C(=O)N[C@@H]([C@@H](C)O)C(=O)N[C@@H](CC(C)C)C(=O)N[C@H](C(=O)N[C@@H](Cc2c[nH]c3ccccc23)C(=O)N[C@@H](CCC(=O)O)C(=O)O)C(C)(C)SSC1(C)C
The molecule B13 displayed an IC50 greater than 50 nM.

The molecule XRSDTLXWK (not fully specified; (Ac Pen N-Me-R S D T L Pen W k OH)2 DIG; disulfide Pen-Pen) [SEQ ID NO: 76] registered a 50% inhibitory concentration (IC50) greater than 10 nM.

B14: SEQ ID NO: 77 (peptide)
peptide: XRSDTLXWK
modifications: not fully specified; (Ac Pen N-Me-R S D T L Pen W N-Me-K NH2)2 DIG; disulfide Pen-Pen
B14 showed a half-maximal inhibitory concentration (IC50) greater than 100 nM.

B15: SEQ ID NO: 93 (peptide)
peptide: Ac-[Pen][NMeR]SDTLC[Tic][dE][dK](DIG)-NH2
modifications: disulfide 1-7; also: homodimer (…)2 DIG: the two subunits are joined through the K10 NZ by the DIG linker
For B15, the IC50 is greater than 500 nM.

B16: SEQ ID NO: 106 (peptide)
peptide: Ac-[Pen][NMeR]SDTL[Pen][Phe(4-tBu)][dE][dK]-NH2
modifications: disulfide 1-7; not fully specified (residue 10); printed as (Ac Pen N-Me-R S D T L Pen F(4tBu) e k NH2)2 DIG, disulfide Pen-Pen; also: homodimer: two subunits joined by DIG linker
As to B16, the IC50 is no more than 10 nM. The value for Ac-[Pen][NMeR]SDTL[Pen][Phe(4-tBu)][β3hE][dK](Hexanoyl) (disulfide 1-7) [SEQ ID NO: 170] was greater than 10 nM; that for Ac-[Pen][NMeR]SDTL[Pen][Phe(4-tBu)][β3hE][dK](Myristoyl) (disulfide 1-7) [SEQ ID NO: 175] was greater than 500 nM.
